Measurements: the RNAGym collection of RNA variant scans (doi:10.7554/elife.90254)

B1: OR4K15 (parent)
chain: GUUAACGGUCAUAGGCCAUGGAAACUAGGAGCACCAUUUCGCUGCCAGUGAAGAAAUGAACAAAGAAAAUCUGGGCCAGGCAGGCAUCAAAAGAAAUAGUCUUGCGCUCAACCAGAAAGUCUGUAAUCAUUUUAAGGGUA

Variants of: B1
Assay: self-cleavage, relative activity (ratio to wild type); higher = more cleavage; in vitro, sequencing; the parent is a self-cleaving ribozyme

Q: For GUUAACGGUCAUAGGCCAUGGAAACUAGGAGCACCAUUUGGCUGCCAGUGAAGAAAUGAACAAAGAAAAUCUGGGCCAGGCAGGCAUCAAAAGGAAUAGUCUUGCGCUCAACCAGAAAGUCUGUAAUCAUUUUAAGGGUA [C40G A94G], which self-cleavage is on record?
A: Its self-cleavage is 0.63.

Q: For GUUAACGGUCAUAGGCCAUGGAAACUAGGAGCACCAUUUAGCUGCCAGUGAAGAAAUGAACAAAGAAAAUCUGGGCCAGGCAGGCAUCAAAAGAAAUAGUCUUGCGCUCAACCAGAAAGUCUGCAAUCAUUUUAAGGGUA [C40A U124C], which self-cleavage is on record?
A: Its self-cleavage is 0.93.

Q: Which self-cleavage does the source give for GUUAACGGUCAUAGGCCAUGGAAACUAGGAGCACCAUUUAGCUGCCAGCGAAGAAAUGAACAAAGAAAAUCUGGGCCAGGCAGGCAUCAAAAGAAAUAGUCUUGCGCUCAACCAGAAAGUCUGUAAUCAUUUUAAGGGUA [C40A U49C] here?
A: Its self-cleavage is 1.85.

Q: Which self-cleavage does the source give for GUUAACGGUCAUAGGCCAUGGAAACUAGGAGCACCAUUUUGCUGCCAGUGAGGAAAUGAACAAAGAAAAUCUGGGCCAGGCAGGCAUCAAAAGAAAUAGUCUUGCGCUCAACCAGAAAGUCUGUAAUCAUUUUAAGGGUA [C40U A52G] here?
A: The self-cleavage was 1.54.

Q: Which self-cleavage does the source give for GUUAACGGUCAUAGGCCAUGGAAACUAGGAGCACCAUUUAGCUGCCAGUGAAGAAAUGAACAAAGAGAAUCUGGGCCAGGCAGGCAUCAAAAGAAAUAGUCUUGCGCUCAACCAGAAAGUCUGUAAUCAUUUUAAGGGUA [C40A A67G] here?
A: Its self-cleavage is 1.7.

Q: For GUUAACGGUCAUAGGCCAUGGAAACUAGGAGCACCAUUGCGCUGCCAGUGAAGAAAUGAACAAAGAAAAUCUGGGCCAGGCAGGCAUCAAAAGAAAUAGUCUUGCGCUCAACCAGAAAGUCUGUAAUCAUUCUAAGGGUA [U39G U132C], which self-cleavage is on record?
A: Its self-cleavage is 0.94.

Q: For GUUAACGGUCAUAGGCCAUGGAAACUAGGAGCACCAUUGCGCUGCCAGUGAAGAAAUGAACAAAGAAAAUCUGGGCCAGGCAGGCAUCAAAAGAAAUAGUCUUGCGCUCAACCAGAAAGUCUGUGAUCAUUUUAAGGGUA [U39G A125G], which self-cleavage is on record?
A: Its self-cleavage is 0.62.

Q: Which self-cleavage does the source give for GUUAACGGUCAUAGGCCAUGGAAACUAGGAGCACCAUUUAGCUGCCAGUGAAGAAAUGAACAAAGAAAAUCUGGGCCAGGCAGGCAUCAAAAGAAAUAGUCUUGCGCUCAGCCAGAAAGUCUGUAAUCAUUUUAAGGGUA [C40A A111G] here?
A: Its self-cleavage is 0.02.

Q: Which self-cleavage does the source give for GUUAACGGUCAUAGGCCAUGGAAACUAGGAGCACCAUUUAGCUGCCAGUGAAGAAAUGAACAAAGGAAAUCUGGGCCAGGCAGGCAUCAAAAGAAAUAGUCUUGCGCUCAACCAGAAAGUCUGUAAUCAUUUUAAGGGUA [C40A A66G] here?
A: Its self-cleavage is 1.69.

Q: With GUUAACGGUCAUAGGCCAUGGAAACUAGGAGCACCAUUUAGCUGCCAGUGAAGAAAUGAACAAAGUAAAUCUGGGCCAGGCAGGCAUCAAAAGAAAUAGUCUUGCGCUCAACCAGAAAGUCUGUAAUCAUUUUAAGGGUA [C40A A66U] as the variant, how does the self-cleavage read?
A: The self-cleavage was 1.52.

Q: Which self-cleavage does the source give for GUUAACGGUCAUAGGCCAUGGAAACUAGGAGCACCAUUUAGCUGCCAGUGAAGAAAUGAACAAAGAAAAUCUGGGCCGGGCAGGCAUCAAAAGAAAUAGUCUUGCGCUCAACCAGAAAGUCUGUAAUCAUUUUAAGGGUA [C40A A78G] here?
A: Its self-cleavage is 0.32.

Q: Which self-cleavage does the source give for GUUAACGGUCAUAGGCCAUGGAAACUAGGAGCACCAUUGCGCUGCCAGUGAAGAAAUGAACAAAGAAAAUCUGGGCCAGGCAGGCAUCAAAAGAAAUAGUCUUGCGCUCAACCAGAAAGUCUGUAAUCGUUUUAAGGGUA [U39G A129G] here?
A: The self-cleavage was 0.86.

Q: For GUUAACGGUCAUAGGCCAUGGAAACUAGGAGCACCAUUUAGCUGCCAGUGAAGAAAUGAACAAAGAAAGUCUGGGCCAGGCAGGCAUCAAAAGAAAUAGUCUUGCGCUCAACCAGAAAGUCUGUAAUCAUUUUAAGGGUA [C40A A69G], which self-cleavage is on record?
A: Its self-cleavage is 1.65.

Q: Which self-cleavage does the source give for GUUAACGGUCAUAGGCCAUGGAAACUAGGAGCACCAUUUAGCUGCCAGUGAAGAAAUGAACAAAGAAAAUCUGGGCCAGGCAGGCAUCAAAAGAAAUAGUCUUGCGCUCAACCAGAGAGUCUGUAAUCAUUUUAAGGGUA [C40A A117G] here?
A: The self-cleavage was 2.53.

Q: With GUUAACGGUCAUAGGCCAUGGAAACUAGGAGCACCAUUUUGCUGCCAGUGAAGAGAUGAACAAAGAAAAUCUGGGCCAGGCAGGCAUCAAAAGAAAUAGUCUUGCGCUCAACCAGAAAGUCUGUAAUCAUUUUAAGGGUA [C40U A55G] as the variant, how does the self-cleavage read?
A: The self-cleavage was 1.67.

Q: With GUUAACGGUCAUAGGCCAUGGAAACUAGGAGCACCAUUUAGCUGCCAGUGAAGAAAUGAACAAAGAAAAUCUGGGCCAGGCAGGCAUCGAAAGAAAUAGUCUUGCGCUCAACCAGAAAGUCUGUAAUCAUUUUAAGGGUA [C40A A89G] as the variant, how does the self-cleavage read?
A: The self-cleavage was 1.44.

Q: Which self-cleavage does the source give for GUUAACGGUCAUAGGCCAUGGAAACUAGGAGCACCAUUUUGCUGCCAGUGAAGAAAUGGACAAAGAAAAUCUGGGCCAGGCAGGCAUCAAAAGAAAUAGUCUUGCGCUCAACCAGAAAGUCUGUAAUCAUUUUAAGGGUA [C40U A59G] here?
A: Its self-cleavage is 2.06.

Q: Which self-cleavage does the source give for GUUAACGGUCAUAGGCCAUGGAAACUAGGAGCACCAUUUGGCUGCCAGUGAAGAAAUGAACAAAGAAAAUCUGGGCCAGGCAGGCAUCAAAAGAAAUAGUCUUGCGCUCAACCAGAAAGUCUGUAAUCAUUUUGAGGGUA [C40G A134G] here?
A: Its self-cleavage is 0.82.

Q: Which self-cleavage does the source give for GUUAACGGUCAUAGGCCAUGGAAACUAGGAGCACCAUUUGGCUGCCAGUGAAGAAAUGAACAAAGAAAAUCUGAGCCAGGCAGGCAUCAAAAGAAAUAGUCUUGCGCUCAACCAGAAAGUCUGUAAUCAUUUUAAGGGUA [C40G G74A] here?
A: Its self-cleavage is 0.29.

Q: With GUUAACGGUCAUAGGCCAUGGAAACUAGGAGCACCAUUUAGCUGCCAGUGAAGAAAUGAACAAAGAAAAUCUGGGCCAGGCAGGCAUCAAAAGAAAUAGUCUUGCGCACAACCAGAAAGUCUGUAAUCAUUUUAAGGGUA [C40A U108A] as the variant, how does the self-cleavage read?
A: Its self-cleavage is 0.

Q: For GUUAACGGUCAUAGGCCAUGGAAACUAGGAGCACCAUUUAGCUGCCAGUGAAGAAAUGAACAAAAAAAAUCUGGGCCAGGCAGGCAUCAAAAGAAAUAGUCUUGCGCUCAACCAGAAAGUCUGUAAUCAUUUUAAGGGUA [C40A G65A], which self-cleavage is on record?
A: The self-cleavage was 1.
